Experimental data published in the supplement of paper PMC11246515.
± gives the standard deviation of the averaged measurements.

Test: total protein half-life in vivo (active degradation + dilution); higher = more stable protein
[1] = E. coli NCM3722 delta-clpP delta-lon delta-hslV, growth: N-lim chemostat, doubling time 6 h
[2] = E. coli NCM3722 delta-clpP, growth: N-lim chemostat, doubling time 6 h
[3] = E. coli NCM3722 delta-lon, growth: N-lim chemostat, doubling time 6 h
[4] = E. coli NCM3722 delta-smpB, growth: N-lim chemostat, doubling time 6 h
[5] = wild type E. coli NCM3722, growth: C-lim chemostat, doubling time 6 h
[6] = wild type E. coli NCM3722, growth: N-lim chemostat, doubling time 6 h
[7] = wild type E. coli NCM3722, growth: N-lim chemostat, doubling time 12 h
[8] = wild type E. coli NCM3722, growth: P-lim chemostat, doubling time 6 h
[9] = wild type E. coli NCM3722, growth: P-lim chemostat, doubling time 12 h
[10] = E. coli NCM3722 delta-hslV, growth: N-lim chemostat, doubling time 6 h
[11] = wild type E. coli NCM3722, growth: C-lim chemostat, doubling time 3 h
[12] = wild type E. coli NCM3722, growth: C-lim chemostat, doubling time 12 h

Sequence: MRKFIFVLLTLLLVSPFSFAMKGIIWQPQNRDSQVTDTQWQGLMSQLRLQGFDTLVLQWTRYGDAFTQPEQRTLLFKRAAAAQQAGLKLIVGLNADPEFFMHQKQSSAALESYLNRLLAADLQQARLWSAAPGITPDGWYISAEIDDLNWRSEAARQPLLTWLNNAQRLISDVSAKPVYISSFFAGNMSPDGYRQLLEHVKATGVNVWVQDGSGVDKLTAEQRERYLQASADCQSPAPASGVVYELFVAGKGKTFTAKPKPDAEIASLLAKRSSCGKDTLYFSLRYLPVAHGILEY
- total protein half-life in vivo [1]: 5.13 ± 0.23 h
- total protein half-life in vivo [2]: 6.05 ± 0.4 h
- total protein half-life in vivo [3]: 6.25 ± 0.24 h
- total protein half-life in vivo [4]: 5.08 ± 1.3 h
- total protein half-life in vivo [5]: 6.17 ± 0.52 h
- total protein half-life in vivo [6]: 5.78 ± 0.16 h
- total protein half-life in vivo [7]: 11.8 ± 1.6 h
- total protein half-life in vivo [8]: 5.96 ± 0.13 h
- total protein half-life in vivo [9]: 12.5 ± 0.58 h

Sequence: MRKIKIGLALGSGAARGWSHIGVINALKKVGIEIDIVAGCSIGSLVGAAYACDRLSALEDWVTSFSYWDVLRLMDLSWQRGGLLRGERVFNQYREIMPETEIENCSRRFAAVATNLSTGRELWFTEGDLHLAIRASCSIPGLMAPVAHNGYWLVDGAVVNPIPISLTRALGADIVIAVDLQHDAHLMQQDLLSFNVSEENSENGDSLPWHARLKERLGSITTRRAVTAPTATEIMTTSIQVLENRLKRNRMAGDPPDILIQPVCPQISTLDFHRAHAAIAAGQLAVERKMDELLPLVRTNI [P0AFR0]
- total protein half-life in vivo [1]: 5 ± 0.29 h
- total protein half-life in vivo [2]: 4.67 ± 0.2 h
- total protein half-life in vivo [10]: 4.923 ± 0.045 h
- total protein half-life in vivo [3]: 5.26 h
- total protein half-life in vivo [4]: 4.51 ± 0.14 h
- total protein half-life in vivo [11]: 2.951 ± 0.017 h
- total protein half-life in vivo [5]: 5.25 ± 0.36 h
- total protein half-life in vivo [12]: 10.6 ± 1.2 h
- total protein half-life in vivo [6]: 5.61 ± 0.09 h
- total protein half-life in vivo [7]: 8.89 ± 1.5 h
- total protein half-life in vivo [8]: 5.659 ± 0.02 h
- total protein half-life in vivo [9]: 11.7 ± 0.5 h

Sequence: MRKILITGGAGFIGSALVRYIINETSDAVVVVDKLTYAGNLMSLAPVAQSERFAFEKVDICDRAELARVFTEHQPDCVMHLAAESHVDRSIDGPAAFIETNIVGTYTLLEAARAYWNALTEDKKSAFRFHHISTDEVYGDLHSTDDFFTETTPYAPSSPYSASKASSDHLVRAWLRTYGLPTLITNCSNNYGPYHFPEKLIPLMILNALAGKSLPVYGNGQQIRDWLYVEDHARALYCVATTGKVGETYNIGGHNERKNLDVVETICELLEELAPNKPHGVAHYRDLITFVADRPGHDLRYAIDASKIARELGWLPQETFESGMRKTVQWYLANESWWKQVQDGSYQGERLGLKG
- total protein half-life in vivo [1]: 5.27 ± 0.23 h
- total protein half-life in vivo [2]: 5.27 ± 0.67 h
- total protein half-life in vivo [10]: 5.1 ± 0.12 h
- total protein half-life in vivo [3]: 5.96 ± 0.64 h
- total protein half-life in vivo [4]: 4.74 ± 0.24 h
- total protein half-life in vivo [5]: 6.39 ± 0.12 h
- total protein half-life in vivo [12]: 11.7 ± 1.8 h
- total protein half-life in vivo [6]: 4.95 ± 0.23 h
- total protein half-life in vivo [7]: 10.7 ± 2.9 h
- total protein half-life in vivo [8]: 6.4 ± 0.31 h
- total protein half-life in vivo [9]: 12.61 ± 0.0068 h

Sequence: MRKLWNALRRPSARWSVLALVAIGIVIGIALIVLPHVGIKVTSTTEFCVSCHSMQPVYEEYKQSVHFQNASGVRAECHDCHIPPDIPGMVKRKLEASNDIYQTFIAHSIDTPEKFEAKRAELAEREWARMKENNSATCRSCHNYDAMDHAKQHPEAARQMKVAAKDNQSCIDCHKGIAHQLPDMSSGFRKQFDELRASANDSGDTLYSIDIKPIYAAKGDKEASGSLLPASEVKVLKRDGDWLQIEITGWTESAGRQRVLTQFPGKRIFVASIRGDVQQQVKTLEKTTVADTNTEWSKLQATAWMKKGDMVNDIKPIWAYADSLYNGTCNQCHGAPEIAHFDANGWIGTLNGMIGFTSLDKREERTLLKYLQMNASDTAGKAHGDKKEEK
- total protein half-life in vivo [3]: 5.27 h
- total protein half-life in vivo [7]: 9.72 h
- total protein half-life in vivo [9]: 10.5 h

Sequence: MRKNTYAMRYVAGQPAERILPPGSFASIGQALPPGEPLSTEERIRILVWNIYKQQRAEWLSVLKNYGKDAHLVLLQEAQTTPELVQFATANYLAADQVPAFVLPQHPSGVMTLSAAHPVYCCPLREREPILRLAKSALVTVYPLPDTRLLMVVNIHAVNFSLGVDVYSKQLLPIGDQIAHHSGPVIMAGDFNAWSRRRMNALYRFAREMSLRQVRFTDDQRRRAFGRPLDFVFYRGLNVSEASVLVTRASDHNPLLVEFSPGKPDK [P0A8U2]
- total protein half-life in vivo [2]: 4.41 h
- total protein half-life in vivo [10]: 2.48 ± 0.64 h
- total protein half-life in vivo [3]: 3.2 ± 0.29 h
- total protein half-life in vivo [4]: 2.65 ± 0.35 h
- total protein half-life in vivo [11]: 1.62 ± 0.14 h
- total protein half-life in vivo [5]: 2.47 ± 0.035 h
- total protein half-life in vivo [12]: 3.514 ± 0.023 h
- total protein half-life in vivo [6]: 2.76 ± 0.092 h
- total protein half-life in vivo [7]: 4.14 ± 0.052 h
- total protein half-life in vivo [8]: 2.42 ± 0.055 h
- total protein half-life in vivo [9]: 3.83 ± 0.2 h

Sequence: MRKTVAFGFVGTVLDYAGRGSQRWSKWRPTLCLCQQESLVIDRLELLHDARSRSLFETLKRDIASVSPETEVVSVEIELHNPWDFEEVYACLHDFARGYEFQPEKEDYLIHITTGTHVAQICWFLLAEARYLPARLIQSSPPRKKEQPRGPGEVTIIDLDLSRYNAIASRFAEERQQTLDFLKSGIATRNPHFNRMIEQIEKVAIKSRAPILLNGPTGAGKSFLARRILELKQARHQFSGAFVEVNCATLRGDTAMSTLFGHVKGAFTGARESREGLLRSANGGMLFLDEIGELGADEQAMLLKAIEEKTFYPFGSDRQVSSDFQLIAGTVRDLRQLVAEGKFREDLYARINLWTFTLPGLRQRQEDIEPNLDYEVERHASLTGDSVRFNTEARRAWLAFATSPQATWRGNFRELSASVTRMATFATSGRITLDVVEDEINRLRYNWQESRPSALTALLGAEAENIDLFDRMQLEHVIAICRQAKSLSAAGRQLFDVSRQGKASVNDADRLRKYLARFGLTWEAVQDQHSSS
- total protein half-life in vivo [3]: 4.02 h

Sequence: MRKYRLSEEQRAFSYQEDGTKKNVLLRQIIAISDFNDVIAGTAGGWIDRETVLAQEGNCWIYDQNAIAFGGAVISGNTRITGTSVLWGEVYATDNVWIDNSEISQGAYISDSVTIHDSLVYGQCRIFGHALIDQHSMIVAAQGLTPDHQLLLQIYDRARVSASRIVHQAQIYGDAVVRYAFIEHRAEVFDFASIEGNEENNVWLCDCAKVYGHAQVKAGIEEDAIPTIHYSSQVAEYAIVEGNCVLKHHVLVGGNAVVRGGPILLDEHVVIQGESRITGAVIIENHVELTDHAVVEAFDGDTVHVRGPKVINGEERITRTPLAGLL
- total protein half-life in vivo [2]: 4.51 h
- total protein half-life in vivo [10]: 3.02 h
- total protein half-life in vivo [4]: 2.62 ± 0.092 h
- total protein half-life in vivo [11]: 2.39 h
- total protein half-life in vivo [12]: 6.16 h
- total protein half-life in vivo [6]: 3.27 h
- total protein half-life in vivo [7]: 5.74 h
- total protein half-life in vivo [9]: 8.26 ± 1 h

Sequence: MRLAPLYRNALLLTGLLLSGIAAVQAADWPRQITDSRGTHTLESQPQRIVSTSVTLTGSLLAIDAPVIASGATTPNNRVADDQGFLRQWSKVAKERKLQRLYIGEPSAEAVAAQMPDLILISATGGDSALALYDQLSTIAPTLIINYDDKSWQSLLTQLGEITGHEKQAAERIAQFDKQLAAAKEQIKLPPQPVTAIVYTAAAHSANLWTPESAQGQMLEQLGFTLAKLPAGLNASQSQGKRHDIIQLGGENLAAGLNGESLFLFAGDQKDADAIYANPLLAHLPAVQNKQVYALGTETFRLDYYSAMQVLDRLKALF [P0AEL6]
- total protein half-life in vivo [1]: 3.63 ± 0.44 h
- total protein half-life in vivo [2]: 4.68 ± 0.25 h
- total protein half-life in vivo [10]: 5.13 h
- total protein half-life in vivo [4]: 5.5 ± 0.95 h
- total protein half-life in vivo [11]: > 4 h
- total protein half-life in vivo [5]: 5.29 ± 0.068 h
- total protein half-life in vivo [12]: 11.5 ± 3.5 h
- total protein half-life in vivo [6]: 5.62 ± 0.55 h
- total protein half-life in vivo [7]: 10.4 ± 3 h
- total protein half-life in vivo [8]: 6.51 ± 0.24 h
